T1: α1antichymotrypsin (ACT) (human, UniProt P01011 24-423)
T1 construct: Used in excess in the incubation with PZ-N PSA
T1 sequence (looked up): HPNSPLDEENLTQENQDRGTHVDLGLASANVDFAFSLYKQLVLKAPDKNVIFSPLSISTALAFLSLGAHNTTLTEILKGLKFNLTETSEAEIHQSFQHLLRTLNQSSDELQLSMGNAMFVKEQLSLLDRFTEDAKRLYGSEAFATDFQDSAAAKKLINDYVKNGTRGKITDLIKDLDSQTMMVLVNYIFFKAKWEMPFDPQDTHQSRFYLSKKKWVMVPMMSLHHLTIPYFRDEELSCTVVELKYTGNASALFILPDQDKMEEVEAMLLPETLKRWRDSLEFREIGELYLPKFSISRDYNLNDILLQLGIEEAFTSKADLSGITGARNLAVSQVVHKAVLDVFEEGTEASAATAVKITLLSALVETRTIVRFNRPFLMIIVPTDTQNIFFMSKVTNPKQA

B1: [-1]pPSA (enzyme)
chain: not shown
B2: [-4]pPSA (enzyme)
chain: not shown
notes: also called [-4]proPSA
B3: [-2]pPSA (enzyme)
chain: not shown
notes: also called [-2]proPSA
B4: [+5]PSA (enzyme)
chain: not shown
notes: I equated '[+5]PSA' with 'PSA clipped after Gly4'; also called PSA clipped after Gly4

The target in this assay is T1, α1antichymotrypsin (ACT). The assay is described as follows: incubation with excess ACT, HIC-HPLC, N-terminal sequencing. The protocol:
Figure 4: FIG. 4 is HIC-HPLC profile of the reaction mixture of PZ-N PSA incubated with excess ACT. […] Peak 2 is the residual excess active ACT. Peak 3 is the covalent PSA-ACT complex.
The original profile of this PZ-N sample is seen in FIG. 1. […] Peak 2 is the residual excess active ACT remaining after incubation. […] The [−2]pPSA is a truncated form of pPSA which contains the last two amino acids of the 7 amino acid pro leader peptide. PPSA is expressed with a heptapeptide pro leader sequence consisting of APLILSR. Thus, the [−2] pPSA contains the serine-arginine dipeptide on the N-terminal isoleucine of mature PSA. The minor peak eluting at 12 min contains the [−4]pPSA. The retention time of [−4]pPSA has been reported previously (10).
Regarding B1, the binding result was “no binding”.
Under B2 stands “no binding”.
Under B3 stands “no binding”; under B4, “no binding”.

Values taken from patent US6423503 (HYBRITECH, dated 2002).
